Assays:
Lewis rats = assay: Induction of EAE by peptide analog; format: in vivo, rat
Experimental: In addition, as a safety measure, but not essential to this invention, suitable peptide analogs may be tested for direct induction of EAE. As described in detail in Example 2, various amounts of peptide analogs are injected at the base of the tail of rats, and the rats examined daily for signs of EAE. A peptide analog which is not considered to cause EAE has a mean cumulative score of less than or equal to 1 over seven days when about 12 mg/kg or less in complete Freund's adjuvant is injected.
MBP peptide and peptide analogs were dissolved in phosphate-buffered saline (PBS) and emulsified with an equal volume of incomplete Freund's adjuvant supplemented with 4 mg/ml heat-killed Mycobacterium tuberculosis H37Ra in oil (Difco Laboratories, Inc., Detroit, Mich.). Rats were immunized subcutaneously at the base of the tail with 0.1-0.2 ml containing 500 μg of peptide in the emulsion and were monitored for clinical signs daily. EAE was scored on a scale of 0-4, as follows: 0, clinically normal; 1, flaccid tail; 2, hind limb weakness; 3, hind limb paralysis; 4, front and hind limbs affected.
The ability of peptide analogs to cause EAE is assessed in vivo. Rats were injected with MBP (87-99) or h88/A91 peptide analog as described in Example 2. Animals were monitored daily for evidence of EAE. Rats receiving MBP (87-99) had 100% incidence (18/18 rats) of EAE with a mean maximum clinical score of 2.4±0.2. In contrast, 0/12 rats receiving the peptide analog h88/A91 had EAE.

[1] = tested on: peripheral blood mononuclear cells; assay: Frequency of antigen-reactive T cells in PBMC of untreated MS patients and healthy donors (split-well); format: cell-based, human; parameters: mean frequency of antigen-reactive T cells / frequency of antigen-reactive T cells in healthy subjects / antigen-reactive T cells, % Positive: concentration or dose not given beside the values
Experimental: Immune response to the peptide analog was assessed by measuring the frequency of proliferating peripheral blood T cells using a split-well microtiter method (i.e., number of positive wells {Δ cpm >1000, stimulation index>3} divided by the total number of wells assayed). Peripheral blood mononuclear cells (PBMC) were isolated from venous blood by Ficoll-Hypaque density gradient centrifugation, washed twice and resuspended in complete tissue culture medium (Iscove's modification of Dulbecco's medium containing 10% heat-inactivated, pooled, human A-B serum, 2 mM L-glutamine, 100 U/ml penicillin/streptomycin and 50 μg/ml gentamycin). PBMC from each patient were seeded at 10^5/well in 96 well, U-bottom microtiter plates containing 25 μg/ml whole MBP, 10 μg/ml NBI-5788 or medium alone in a volume of 200 μl. Three days later supernatants were collected and frozen at −80° C. and fresh medium containing IL-2 (10 U/ml) was added. IL-2-containg medium was refreshed on Day 7 and Day 11. On Day 14, the frequency of antigen response was determined by the “split well” technique. Briefly, cells from one primary well were split into replicate experimental wells in the presence of 10^5 freshly isolated autologous, irradiated peripheral blood mononuclear cells (APCs): one containing the original antigen (25 μg/ml) and one without antigen. Two days later supernatants were collected and the wells pulsed with 1 µCi/well [^3H]-thymidine ([…]) for the final 18 hours of culture. ^3H-Thymidine uptake was measured in a beta counter. […] The association between T cell frequency and NBI-5788 treatment was evaluated by χ^2 contingency analysis.

[2] = tested on: T cell lines LW 80, 88, 90 and 93; assay: Specificity and phenotype of APL-reactive T cell lines from patient; format: cell-based, human; conditions: 25 μg/ml antigen
Experimental: Four cell cultures from one patient ([…], 32% frequency) showing a response (> three-fold over background) were expanded into cell lines (LW 80, 88, 90 and 93) by incubation in IL-2 for 11-14 days (1-2 passages). Once sufficient cells had grown up, they were cultured with either medium alone or 25 μg/ml of either whole MBP, MBP (83-99) or APL NBI-5788. After 24 hours, the supernatants were collected and the level of cytokines determined (see FIGS. 22 to 26). The remaining cultures were pulsed with radiolabeled thymidine and the extent of incorporation determined.

[3] = tested on: NBI-5788-reactive or MBP-reactive T cell lines from MS patients; assay: Cross-reactivity of T cell lines (TCL) from MS patients, 3H-thymidine proliferation; format: cell-based, human
Experimental: To evaluate the degree of NBI-5788-specific reactivity induced by NBI-5788 treatment, we determined whether NBI-5788-reactive T cell lines generated from untreated or NBI-5788-treated patients cross-reacted with whole MBP or MBP peptide 83-99. T cell lines were generated from positive cultures in the frequency analysis by an additional cycle of co-culture with antigen. Specificity of positive lines was tested by culturing 2×10^4 T cells/well in triplicate with whole MBP, MBP83-99, NBI-5788 or medium alone in the presence of 10^5 APCs in a final volume of 200 μl/well. Two days later supernatants were pooled from replicate wells and frozen at −80° C. Wells were then pulsed with [^3H]-thymidine (1 μCi/well) for the final 18 hours of culture.

[4] = tested on: Dr2b-restricted T cell clone 5F6; assay: Cytokine production (TNF-α, IFN-γ) by T cell clone 5F6, EIA; format: cell-based, human; conditions: 3 μM MBP peptide, 24 hours, FIG. 21
Experimental: As discussed in detail below, the production of cytokines may also be assessed. In particular, TNF-α and IFN-γ production are especially interesting. These pro-inflammatory cytokines are thought to play a role in the pathogenesis of the disease. Briefly, T cell clone is incubated in the presence of stimulating MBP peptide and peptide analog or control peptide (SWM) or medium only. After a 24 hour incubation, the levels of TNF-α and IFN-γ in the supernatant are determined using commercially available EIA kits (Endogen, Cambridge, Mass.).
The ability of the peptide analog ligand to influence cytokine production was next measured. The Dr2b-restricted T cell clone 5F6 was incubated in the presence of 3 μM MBP peptide with either 10 μM of NBI-5788 (SEQ ID NO:7) or SWM or medium only. As a control, cells were cultured in the presence of medium alone. After 24 hours, supernatants were removed and the levels of tumor necrosis factor alpha (TNF-α) and interferon-y (IFN-γ) determined using commercially available EIA kits.

[5] = rats injected with 500 μg peptide in adjuvant
[6] = subject MS-2, untreated MS patient
[7] = subject MS-3, untreated MS patient
[8] = subject MS-7, untreated MS patient
[9] = subject MS-8, untreated MS patient
[10] = subject MS-9, untreated MS patient
[11] = subject MS-10, untreated MS patient
[12] = subject MS-11, untreated MS patient
[13] = patient MS-1, dose 20 mg, TCL 4

Molecule: CC[C@H](C)[C@H](NC(=O)[C@H](CC(N)=O)NC(=O)[C@H](CCCCN)NC(=O)[C@H](Cc1ccccc1)NC(=O)[C@H](Cc1ccccc1)NC(=O)[C@H](Cc1c[nH]cn1)NC(=O)[C@@H](N)C(C)C)C(=O)N[C@H](C(=O)N[C@H](C(=O)N1CCC[C@H]1C(=O)N[C@@H](CCCNC(=N)N)C(=O)N[C@H](C(=O)N1CCC[C@H]1C(=O)O)[C@@H](C)O)[C@@H](C)O)C(C)C [MBP (87-99)]
- incidence of EAE (Lewis rats; [5]): 100%
- rats with EAE / rats injected (Lewis rats; [5]): 18/18
- mean maximum clinical score (Lewis rats; scale 0-4): 2.4±0.2

Molecule: CC[C@H](C)[C@H](NC(=O)[C@H](CC(N)=O)NC(=O)[C@H](C)NC(=O)[C@H](Cc1ccccc1)NC(=O)[C@H](Cc1ccccc1)NC(=O)[C@@H](Cc1c[nH]cn1)NC(=O)[C@@H](N)C(C)C)C(=O)N[C@H](C(=O)N[C@H](C(=O)N1CCC[C@H]1C(=O)N[C@@H](CCCNC(=N)N)C(=O)N[C@H](C(=O)N1CCC[C@H]1C(=O)O)[C@@H](C)O)[C@@H](C)O)C(C)C [h88/A91]
- induction of EAE by the peptide (Lewis rats; rat, in vivo): does not induce EAE
- rats with EAE / rats injected (Lewis rats; [5]): 0/12

B1: Whole MBP: whole human myelin basic protein (protein, UniProt P02686 1-304, looked up)
Myelin basic protein: MGNHAGKRELNAEKASTNSETNRGESEKKRNLGELSRTTSEDNEVFGEADANQNNGTSSQDTAVTDSKRTADPKNAWQDAHPADPGSRPHLIRLFSRDAPGREDNTFKDRPSESDELQTIQEDSAATSESLDVMASQKRPSQRHGSKYLATASTMDHARHGFLPRHRDTGILDSIGRFFGGDRGAPKRGSGKDSHHPARTAHYGSLPQKSHGRTQDENPVVHFFKNIVTPRTPPPSQGKGRGLSLSRFSWGAEGQRPGFGYGGRASDYKSAHKGFKGVDAQGTLSKIFKLGGRDSRSGSPMARR
- antigen-reactive T cells, Positive/total wells ([1]; Total of healthy donors): 3/96
- antigen-reactive T cells, Positive/total wells ([1]; Total of untreated MS patients): 56/312
- antigen-reactive T cells, % Positive ([1]; healthy donor HD-1): 6.3%
- antigen-reactive T cells, Positive/total wells ([1]; healthy donor HD-1): 3/48
- antigen-reactive T cells, % Positive ([1]; healthy donor HD-2): 0%
- antigen-reactive T cells, Positive/total wells ([1]; healthy donor HD-2): 0/48
- antigen-reactive T cells, % Positive [1, 6]: 6.8%
- antigen-reactive T cells, Positive/total wells [1, 6]: 3/44
- antigen-reactive T cells, % Positive [1, 7]: 25.0%
- antigen-reactive T cells, Positive/total wells [1, 7]: 11/44
- antigen-reactive T cells, % Positive [1, 8]: 11.4%
- antigen-reactive T cells, Positive/total wells [1, 8]: 5/44
- antigen-reactive T cells, % Positive [1, 9]: 52.3%
- antigen-reactive T cells, Positive/total wells [1, 9]: 23/44
- antigen-reactive T cells, % Positive [1, 10]: 16.7%
- antigen-reactive T cells, Positive/total wells [1, 10]: 8/48
- antigen-reactive T cells, % Positive [1, 11]: 2.3%
- antigen-reactive T cells, Positive/total wells [1, 11]: 1/44
- antigen-reactive T cells, % Positive [1, 12]: 11.4%
- antigen-reactive T cells, Positive/total wells [1, 12]: 5/44
- frequency of antigen-reactive T cells in healthy subjects ([1]; two healthy subjects, MBP-reactive cells detected in one of two): 6.3%
- mean frequency of antigen-reactive T cells ([1]; untreated MS patients (n=7)): 18.0±6.3%
- thymidine incorporation of T cell line ([2]; Line 80 of patient): 1,457 ± 195 cpm
- thymidine incorporation of T cell line ([2]; Line 88 of patient): 977 ± 121 cpm
- thymidine incorporation of T cell line ([2]; Line 90 of patient): 1,604 ± 328 cpm
- thymidine incorporation of T cell line ([2]; Line 93 of patient): 630 ± 28 cpm
- proliferative response of MBP-reactive TCL to antigen ([3]; patient MS-1, dose 20 mg, TCL 2): 25,700 ± 5,266
- proliferative response of MBP-reactive TCL to antigen [3, 13]: 9,498 ± 745
- proliferative response of NBI-5788-reactive TCL to antigen [3, 13]: 772 ± 341
- proliferative response of MBP-reactive TCL to antigen ([3]; patient MS-1, dose 20 mg, TCL 5): 13,102 ± 1,286
- proliferative response of MBP-reactive TCL to antigen ([3]; patient MS-1, dose 20 mg, TCL 10): 54,562 ± 207
- proliferative response of MBP-reactive TCL to antigen ([3]; patient MS-1, dose 20 mg, TCL 14): 23,564 ± 854
- proliferative response of MBP-reactive TCL to antigen ([3]; patient MS-1, dose 20 mg, TCL 26): 48,157 ± 1,207
- proliferative response of NBI-5788-reactive TCL to antigen ([3]; patient MS-1, dose 20 mg, TCL 36): 2,515 ± 532
- proliferative response of MBP-reactive TCL to antigen ([3]; patient MS-1, dose 20 mg, TCL 45): 63,810 ± 1,117
- proliferative response of MBP-reactive TCL to antigen ([3]; patient MS-2, dose 20 mg, TCL 14): 16,000 ± 1,133
- proliferative response of MBP-reactive TCL to antigen ([3]; patient MS-3, Pretreat., TCL 9): 9,736 ± 247
- proliferative response of NBI-5788-reactive TCL to antigen ([3]; patient MS-3, dose 20 mg, TCL 2): 1,785 ± 66
- proliferative response of NBI-5788-reactive TCL to antigen ([3]; patient MS-3, dose 20 mg, TCL 4): 298 ± 41
- proliferative response of NBI-5788-reactive TCL to antigen ([3]; patient MS-3, dose 20 mg, TCL 18): 437 ± 191
- proliferative response of NBI-5788-reactive TCL to antigen ([3]; patient MS-3, dose 20 mg, TCL 30): 557 ± 210
- proliferative response of MBP-reactive TCL to antigen ([3]; patient MS-4, dose 20 mg, TCL 7): 5,308 ± 1,269
- proliferative response of NBI-5788-reactive TCL to antigen ([3]; patient MS-4, dose 20 mg, TCL 18): 5,983 ± 5602
- proliferative response of NBI-5788-reactive TCL to antigen ([3]; patient MS-5, dose 20 mg, TCL 15): 13,151 ± 9,967
- proliferative response of NBI-5788-reactive TCL to antigen ([3]; patient MS-5, dose 20 mg, TCL 39): 6,717 ± 558
- proliferative response of NBI-5788-reactive TCL to antigen ([3]; patient MS-5, dose 20 mg, TCL 43): 3,584 ± 1,068
- proliferative response of NBI-5788-reactive TCL to antigen ([3]; patient MS-6, dose 10 mg, TCL 22): 2,167 ± 53
- proliferative response of NBI-5788-reactive TCL to antigen ([3]; patient MS-6, dose 10 mg, TCL 38): 935 ± 65
- proliferative response of NBI-5788-reactive TCL to antigen ([3]; patient MS-7, dose 5 mg, TCL 12): 1,343 ± 498
- proliferative response of NBI-5788-reactive TCL to antigen ([3]; patient MS-7, dose 5 mg, TCL 28): 2,326 ± 1,300
- proliferative response of MBP-reactive TCL to antigen ([3]; patient MS-7, dose 5 mg, TCL 46): 17,019 ± 2,294
- proliferative response of MBP-reactive TCL to antigen ([3]; patient MS-8, Placebo, TCL 26): 68,704 ± 19,348
- proliferative response of MBP-reactive TCL to antigen ([3]; patient MS-8, Placebo, TCL 28): 47,279 ± 4,539
- proliferative response of MBP-reactive TCL to antigen ([3]; patient MS-8, Placebo, TCL 38): 63,253 ± 5,006
- proliferative response of MBP-reactive TCL to antigen ([3]; patient MS-8, Pretreat., TCL 22): 91,447 ± 3,378
- proliferative response of MBP-reactive TCL to antigen ([3]; patient MS-8, Pretreat., TCL 31): 7,379 ± 123
- proliferative response of MBP-reactive TCL to antigen ([3]; patient MS-8, Pretreat., TCL 47): 47,975 ± 10,326
- IFN-γ production [4]: ~160 pg/mL

Source: patent publication US6379670B1, “Methods for treatment of multiple sclerosis using peptide analogs of human myelin basic protein” (Neurocrine Biosciences, Inc., priority 1994, dated 2002)
